Experimental findings from patent publication US20200172896, “EVOLUTION OF BIOACTIVE SEQUENCE-DEFINED SYNTHETIC POLYMERS USING DNA-TEMPLATED POLYMERIZATION” (President and Fellows of Harvard College, published 2020) are described below.

In data set [1] the target is T1, PCSK9 (Homo sapiens, UniProt Q8NBP7;Q8NBP7 Q8NBP7:31-152,Q8NBP7:153-692). As to the kind of experiment: pulldown; unfunctionalized DNA, no evident binding. As to conditions: tags: ACROBiosystems PC9-H5223.
In data set [2] the target is T1, PCSK9. As to the kind of experiment: SPR; 0.9x HBS-EP, salmon sperm DNA 1 mg/ml, 25 C. Conditions: tags: ACROBiosystems PC9-H5223; label: 5' dual biotin-iSp18. The protocol:
(§1) All SPR assays were performed at 25° C. on a Biacore X100 or Biacore T200 (GE Healthcare Life Sciences). Binding kinetics between enzymatically synthesized biotinylated HFNAPs and unlabeled recombinant proteins were measured using single-cycle kinetics with the Biotin CAPture kit (GE Life Sciences) using 0.9×HBS-EP buffer (GE Life Sciences) at a flow rate of 30 μL/min. The injected PCSK9 concentration ranged from 10 to 300 nM for PCSK9-A5 and its variants, or from 2 to 60 nM for PCSK9-Evo5 and its variants. The injected IL-6 concentration ranged from 10 to 300 nM.
(§2) All SPR assays were performed at 25° C. on a Biacore X100 or Biacore T200 (GE Healthcare Life Sciences). […] HBS-EP buffer (GE Life Sciences, BR100188), diluted by MilliQ water to 0.9×, was used as the bulk running buffer. Each experiment consisted of three start-up cycles followed by multiple data collection and blank cycles. […] Afterwards, four ascending concentrations of PCSK9 protein [10, 30, 100, 300 nM protein supplemented with 1 mg/ml salmon sperm DNA (Invitrogen, 15632-011) as nonspecific binding reducer for PCSK9-A5 and its variants; 2, 6, 20, 60 nM protein without salmon sperm DNA for PCSK9-Evo5 and its variants] in 0.9×HBS-EP were injected onto both flow cells in series at 30 μL/min for 150 seconds each, followed by 240 seconds of dissociation. […]
For orientation: Surface plasmon resonance follows binding to a sensor surface in real time, without labels.

Data set [3] addresses T1, PCSK9. Description: SPR; 0.9x HBS-EP, 25 C, immobilized HFNAP. As to conditions: tags: ACROBiosystems PC9-H5223; label: 3' iSp18-dual biotin. The protocol:
as §1, §2

Data set [4] concerns the target PCSK9 mature, lacking prodomain (Homo sapiens, UniProt Q8NBP7 Q8NBP7:153-692). As to the kind of experiment: SPR; no apparent binding, 2-60 nM protein. Conditions: tags: ACROBiosystems PC9-H5226; label: 3' iSp18-dual biotin. As for the experimental part: All SPR assays were performed at 25° C. on a Biacore X100 or Biacore T200 (GE Healthcare Life Sciences). […] HBS-EP buffer (GE Life Sciences, BR100188), diluted by MilliQ water to 0.9×, was used as the bulk running buffer. Each experiment consisted of three start-up cycles followed by multiple data collection and blank cycles. […] Afterwards, four ascending concentrations of PCSK9 protein [10, 30, 100, 300 nM protein supplemented with 1 mg/ml salmon sperm DNA (Invitrogen, 15632-011) as nonspecific binding reducer for PCSK9-A5 and its variants; 2, 6, 20, 60 nM protein without salmon sperm DNA for PCSK9-Evo5 and its variants] in 0.9×HBS-EP were injected onto both flow cells in series at 30 μL/min for 150 seconds each, followed by 240 seconds of dissociation. Both flow cells were then regenerated with a 3:1 mixture of 8 M guanidinium chloride and 1 M NaOH following manufacturer's instructions. Blank cycles were run similarly except that 0.9×HBS-EP (containing 1 mg/ml salmon sperm DNA when PCSK9-A5 and its variants were assayed) without PCSK9 protein was injected.

The target in data set [5] is PCSK9 (biotinylated Avi-tagged) (UniProt Q8NBP7;Q8NBP7 Q8NBP7:31-152,Q8NBP7:153-692). As to the kind of experiment: SPR; immobilized PCSK9, 0.9x HBS-EP, 25 C. As to conditions: tags: biotinylated Avi-tag, ACROBiosystems PC9-H82E7.
Chain of PCSK9 (biotinylated Avi-tagged) (Q8NBP7 31-152, chain 1 of 2): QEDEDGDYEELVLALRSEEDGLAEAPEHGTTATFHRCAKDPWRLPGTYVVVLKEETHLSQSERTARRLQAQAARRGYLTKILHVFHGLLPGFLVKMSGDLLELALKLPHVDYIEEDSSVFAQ
Chain of PCSK9 (biotinylated Avi-tagged) (Q8NBP7 153-692, chain 2 of 2): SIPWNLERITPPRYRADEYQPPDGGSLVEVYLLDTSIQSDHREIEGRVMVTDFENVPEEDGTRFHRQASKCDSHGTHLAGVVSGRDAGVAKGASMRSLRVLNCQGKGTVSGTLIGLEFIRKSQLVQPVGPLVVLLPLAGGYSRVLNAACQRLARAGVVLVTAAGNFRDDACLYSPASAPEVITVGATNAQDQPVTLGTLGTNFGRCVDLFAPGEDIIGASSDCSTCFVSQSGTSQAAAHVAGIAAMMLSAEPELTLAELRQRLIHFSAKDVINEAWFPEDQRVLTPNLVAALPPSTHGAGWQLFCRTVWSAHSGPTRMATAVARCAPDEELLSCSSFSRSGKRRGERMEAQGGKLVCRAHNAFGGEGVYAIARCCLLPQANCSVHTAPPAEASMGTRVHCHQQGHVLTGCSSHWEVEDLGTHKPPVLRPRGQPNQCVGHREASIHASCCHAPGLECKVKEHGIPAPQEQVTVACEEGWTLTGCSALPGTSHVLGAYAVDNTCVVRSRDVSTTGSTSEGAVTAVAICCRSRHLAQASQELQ
Excerpt: Biotinylated PCSK9 in 0.9×HBS buffer was immobilized onto the active flow cell to ˜1000 RU. […] Kinetic parameters were fitted to double-blank-subtracted sensograms under a 1:1 binding model using BIAEvaluation software.
In data set [6] the target is T1, PCSK9. Description: inhibition; inhibition of 20 nM PCSK9 binding to immobilized LDLR by SPR; HEPES, NaCl, 0.1 mM CaCl2, pH 7.5. As to conditions: tags: ACROBiosystems PC9-H5223.
Description: Binding of PCSK9 on surface-immobilized LDLR in the presence of various competing agents was measured on a Series S SA chip using 10 mM HEPES, 150 mM NaCl, 0.1 mM CaCl₂, 0.005% Tween-20, pH 7.5 as bulk buffer at a flow rate of 10 μL/min. The injected solutions contained 20 nM PCSK9 and various competing agents ranging from 2 to 200 nM.
Binding of PCSK9 on surface-immobilized LDLR in the presence of various competing agents was measured on a Series S SA chip. The bulk running buffer was 10 mM HEPES, 150 mM NaCl, 0.1 mM CaCl₂, 0.005% Tween-20, pH 7.5. […] The surface was regenerated using two consecutive one-minute injections of 50 mM HCl. Blank cycles were run similarly except that running buffer containing 1 mg/ml non-specific binding reducer without protein was injected. Response levels at the end of the injection periods from double-blank-subtracted sensograms were recorded.
Data set [7] deals with T1, PCSK9. Description: SPR; 0.9x HBS-EP, 25 C. As to conditions: tags: ACROBiosystems PC9-H5223; label: biotin. The protocol: as §1, §2
Data set [8] addresses T1, PCSK9. Description: SPR; two-state reaction kinetic model. Conditions: tags: ACROBiosystems PC9-H5223; label: 3' iSp18-dual biotin. The protocol: as §1, §2

T1 sequence (Q8NBP7 31-152, chain 1 of 2): as the sequence (Q8NBP7 31-152, chain 1 of 2) above
T1 sequence (Q8NBP7 153-692, chain 2 of 2): as the sequence (Q8NBP7 153-692, chain 2 of 2) above
Chain of PCSK9 mature, lacking prodomain (Q8NBP7 153-692, one chain of several): as the sequence (Q8NBP7 153-692, chain 2 of 2) above

B1: PCSK9A7-DNA (ssDNA)
DNA: CGAATCAGATTGGACCAGTCTTCCCTATTCCTCTACCGTTTGTTCTCTTACTTTCACCTTCTGGAGTCCAGATGTAGGTAG
In the case of B1, in the data set with PCSK9 [1], the binding result was “no binding”.

B2: PCSK9A2-DNA (ssDNA)
DNA: CGAATCAGATTGGACCAGCAACAATGATTCTTCTACCGTTTTTGCCCTCACCTTCTGCGCTGAGAGTCCAGATGTAGGTAG
On to B2, for which the binding result in the data set with PCSK9 [1] is “no binding”.

B3: PCSK9-A5 (ssDNA)
DNA: CGAATCAGATTGGACCAGCCACGTTACTGATTCTTCTACCGTTTTTGCCCCCGGCACCTTCTGGAGTCCAGATGTAGGTAG
modifications: HFNAP, C5 side chain on the 5' pyrimidine of each of the 15 codons in the variable region (19-63): CCA cyclopropyl, CGT/CTT/CTG cyclopentyl, TAC imidazole, TGA/TGC primary alcohol, TTC allylamine, TTT phenol, CCC cyclopropyl, CGG/CAC isopentyl
As for B3, in the data set with PCSK9 [2], binding was characterised by a dissociation constant (Kd) of 98 nM.

B4: PCSK9-Evo5 (ssDNA)
DNA: TGCTACCGTTGTTTACCCTGCCACCTTCTGGAGTCCAGATGTAGGTAG
modifications: HFNAP, C5 side chain on 5' pyrimidine of codons TGC primary alcohol, TAC imidazole, CGT cyclopentyl, TGT phenol, TTA allylamine, CCC cyclopropyl, TGC primary alcohol, CAC isopentyl, CTT cyclopentyl, CTG cyclopentyl
For B4, the affinity with PCSK9 [3], expressed as Kd, was 3 nM. Further, in data set [4], the binding result is listed as “no binding”.

For the molecule TGCTACCGTTGTTTACCCTGCCACCTTCTGGAGTCCAGATGTAGGTAG (ssDNA, side chains as PCSK9-Evo5, 3' idT) [PCSK9-Evo5-syn], in data set [5], the dissociation constant Kd (usually the constant that tells how readily two partners part at equilibrium) was determined as 6.8 nM. Also, in the data set with PCSK9 [6], the IC50 (commonly the concentration that inhibits the measured activity by half) is approximately 9 nM.

In the case of TTCTACCGTTTTTGCCCCCGGCACCTTCTGGAGTCCAGATGTAGGTAG (ssDNA, HFNAP side chains as PCSK9-A5) [PCSK9-A5Trunc], the Kd with PCSK9 [7] came to 68 nM.

B5: PCSK9-Evo5 3 side chains (ssDNA)
DNA: TGCTACCGTTGTTTACCCTGCCACCTTCTGGAGTCCAGATGTAGGTAG
modifications: only three side chains: phenol at position 9, isopentyl at position 21, cyclopentyl at position 24 (so in the source); rest unfunctionalized DNA [phenol at 9, isopentyl at 21, cyclopentyl at 24 (positions as printed); all other side chains removed; base sequence unchanged]
The molecule B5 gave a Kd in the data set with PCSK9 [7] of 3.7 nM.

B6: PCSK9-Evo5 CAC delta side chain (ssDNA)
DNA: TGCTACCGTTGTTTACCCTGCCACCTTCTGGAGTCCAGATGTAGGTAG
modifications: as PCSK9-Evo5 except CAC unmodified [side chains as PCSK9-Evo5 except CAC codon (nt 22-24) unmodified (isopentyl removed); base sequence unchanged]
For the molecule B6, in the data set with PCSK9 [8], the dissociation constant Kd is approximately 420 nM.

B7: PCSK9A4-DNA (ssDNA)
DNA: CGAATCAGATTGGACCAGCCCCAATGCTTTTCGTTTCTATCACGTCTTTAGCGGTACCTATTCGAGTCCAGATGTAGGTAG
In the case of B7, the binding result with PCSK9 [1] is listed as “no binding”.

B8: PCSK9A1-DNA (ssDNA)
DNA: CGAATCAGATTGGACCAGCCACTATATTCTCTCTCCTACCGTTTGCCTTTGCATCACCTTCTGGAGTCCAGATGTAGGTAG
For the molecule B8, the binding result in the data set with PCSK9 [1] is recorded as “no binding”.

B9: PCSK9A6-DNA (ssDNA)
DNA: CGAATCAGATTGGACCAGTTTCAACCTCTTCTGCCTTCTCCACGGCTCCTTCTGCGTTGTTCCGAGTCCAGATGTAGGTAG
Consider B9, for which, in the data set with PCSK9 [1], the binding result was “no binding”.

B10: PCSK9A3-DNA (ssDNA)
DNA: CGAATCAGATTGGACCAGTCTCTACAACCTCTTTCATGTCTTTAGCACTACTTATCCTGATCAGAGTCCAGATGTAGGTAG
On to B10, for which the binding result with PCSK9 [1] is recorded as “no binding”.
